One block for each molecule: values may come before it.
Tests used:
[1] = molecular target: insulin receptor on primary rat adipocytes (rat) (UniProt P15127); assay: cell-based or functional assay
[2] = molecular target: membrane-associated human IR-A (plasma membranes of BHK cells stably transfected with the human IR-A insert) (human) (UniProt P06213); assay: SPA competition vs [125I-A14Y]-human insulin, membrane hIR-A, 0.1% HSA
[3] = molecular target: membrane-associated human IR-B (plasma membranes of BHK cells stably transfected with the human IR-B insert) (human) (UniProt P06213); assay: SPA competition vs [125I-A14Y]-human insulin, membrane hIR-B, 0.1% HSA
Chain of membrane-associated human IR-B (plasma membranes of BHK cells stably transfected with the human IR-B insert) (human) (P06213 28-1382): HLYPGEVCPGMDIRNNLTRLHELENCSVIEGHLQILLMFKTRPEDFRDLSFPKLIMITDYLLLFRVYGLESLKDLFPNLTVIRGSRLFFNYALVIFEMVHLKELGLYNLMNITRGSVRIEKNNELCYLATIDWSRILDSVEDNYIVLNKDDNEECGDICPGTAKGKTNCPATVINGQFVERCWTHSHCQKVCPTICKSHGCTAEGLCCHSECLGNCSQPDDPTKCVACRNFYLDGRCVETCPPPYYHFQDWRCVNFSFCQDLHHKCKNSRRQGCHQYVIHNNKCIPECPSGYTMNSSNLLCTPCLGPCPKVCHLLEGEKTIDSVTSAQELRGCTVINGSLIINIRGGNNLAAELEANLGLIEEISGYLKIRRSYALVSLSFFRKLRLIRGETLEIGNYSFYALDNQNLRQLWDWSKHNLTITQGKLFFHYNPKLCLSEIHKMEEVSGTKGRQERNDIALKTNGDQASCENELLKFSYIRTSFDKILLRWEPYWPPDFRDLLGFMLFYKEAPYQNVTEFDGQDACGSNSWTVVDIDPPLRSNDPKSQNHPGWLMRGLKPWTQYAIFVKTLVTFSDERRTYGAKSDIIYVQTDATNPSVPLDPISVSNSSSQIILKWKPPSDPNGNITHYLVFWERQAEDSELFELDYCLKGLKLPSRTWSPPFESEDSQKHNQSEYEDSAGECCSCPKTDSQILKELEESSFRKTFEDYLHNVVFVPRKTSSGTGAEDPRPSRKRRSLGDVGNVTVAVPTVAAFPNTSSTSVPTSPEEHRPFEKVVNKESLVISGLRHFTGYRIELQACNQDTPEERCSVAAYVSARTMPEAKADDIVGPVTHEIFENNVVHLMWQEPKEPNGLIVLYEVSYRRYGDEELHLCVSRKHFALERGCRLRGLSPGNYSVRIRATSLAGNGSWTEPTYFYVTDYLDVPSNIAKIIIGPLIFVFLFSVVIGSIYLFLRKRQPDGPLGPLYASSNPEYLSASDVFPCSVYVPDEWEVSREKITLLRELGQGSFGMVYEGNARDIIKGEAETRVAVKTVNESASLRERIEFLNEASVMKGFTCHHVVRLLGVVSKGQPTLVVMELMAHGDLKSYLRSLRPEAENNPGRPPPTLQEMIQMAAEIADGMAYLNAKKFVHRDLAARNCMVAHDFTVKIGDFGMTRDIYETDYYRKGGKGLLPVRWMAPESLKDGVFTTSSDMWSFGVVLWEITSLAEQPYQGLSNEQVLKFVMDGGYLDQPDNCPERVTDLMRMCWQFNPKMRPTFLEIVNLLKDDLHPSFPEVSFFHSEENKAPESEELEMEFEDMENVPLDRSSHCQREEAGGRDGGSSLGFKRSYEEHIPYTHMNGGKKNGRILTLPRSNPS

[4] = molecular target: T1, solubilised human IR-A (semipurified by wheat germ agglutinin chromatography from baby hamster kidney (BHK) … (human, UniProt P06213-2 28-1370)); assay: SPA competition vs [125I-A14Y]-human insulin, solubilised hIR-A, 1.5% HSA
T1 construct: mature; Detergent-solubilised holoreceptor captured by anti-IR mouse antibody 83-7 on SPA beads; the precursor is processed into alpha and beta chains; also called hIRA; human insulin receptor (IR), A isoform
T1 sequence (P06213 other isoform, or with tags, fused parts or gaps limits assumed): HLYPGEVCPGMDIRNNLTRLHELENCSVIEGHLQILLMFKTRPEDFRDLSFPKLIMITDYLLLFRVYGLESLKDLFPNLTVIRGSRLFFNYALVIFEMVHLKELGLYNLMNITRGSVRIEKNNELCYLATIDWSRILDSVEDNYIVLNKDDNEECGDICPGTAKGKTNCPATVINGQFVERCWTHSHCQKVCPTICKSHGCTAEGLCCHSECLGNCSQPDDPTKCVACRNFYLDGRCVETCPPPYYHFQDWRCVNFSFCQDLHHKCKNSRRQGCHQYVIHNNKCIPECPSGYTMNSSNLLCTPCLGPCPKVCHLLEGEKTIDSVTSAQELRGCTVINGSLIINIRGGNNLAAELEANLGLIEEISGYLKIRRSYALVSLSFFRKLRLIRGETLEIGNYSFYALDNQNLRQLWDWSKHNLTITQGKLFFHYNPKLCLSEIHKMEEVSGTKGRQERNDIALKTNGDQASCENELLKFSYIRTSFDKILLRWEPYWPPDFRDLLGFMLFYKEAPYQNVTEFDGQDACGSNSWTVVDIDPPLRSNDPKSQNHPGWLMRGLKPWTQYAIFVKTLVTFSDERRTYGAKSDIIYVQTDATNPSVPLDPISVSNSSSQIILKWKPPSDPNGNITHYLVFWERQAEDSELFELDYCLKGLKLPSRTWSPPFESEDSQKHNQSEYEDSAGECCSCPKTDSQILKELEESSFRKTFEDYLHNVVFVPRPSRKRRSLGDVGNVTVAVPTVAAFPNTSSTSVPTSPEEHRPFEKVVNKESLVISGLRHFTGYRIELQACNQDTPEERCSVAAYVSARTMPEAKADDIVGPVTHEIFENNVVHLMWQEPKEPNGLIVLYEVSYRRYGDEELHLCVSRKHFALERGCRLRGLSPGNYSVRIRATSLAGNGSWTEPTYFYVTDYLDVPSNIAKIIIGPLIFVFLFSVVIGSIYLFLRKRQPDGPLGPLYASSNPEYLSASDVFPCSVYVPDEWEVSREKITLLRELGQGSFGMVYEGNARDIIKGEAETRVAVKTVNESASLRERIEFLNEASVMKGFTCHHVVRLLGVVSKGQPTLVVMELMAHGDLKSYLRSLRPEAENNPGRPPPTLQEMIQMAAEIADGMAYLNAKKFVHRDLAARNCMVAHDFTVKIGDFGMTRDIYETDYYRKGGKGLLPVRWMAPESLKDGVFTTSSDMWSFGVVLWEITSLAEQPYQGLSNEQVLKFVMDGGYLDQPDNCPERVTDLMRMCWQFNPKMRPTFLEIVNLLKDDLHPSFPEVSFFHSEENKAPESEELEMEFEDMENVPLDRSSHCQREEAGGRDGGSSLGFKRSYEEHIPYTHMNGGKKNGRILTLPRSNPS

[5] = molecular target: T1, solubilised human IR-A (semipurified by …); assay: SPA competition vs [125I-A14Y]-human insulin, solubilised hIR-A, 0% HSA
[6] = molecular target: T2, membrane-associated human IGF-1R (plasma membranes of BHK cells stably transfected with the human IGF-IR … (human, UniProt P08069 31-1367)); assay: SPA competition vs [125I-Tyr31]-human IGF-1, membrane hIGF-1R, 0.1% HSA
T2 construct: whole, on cells; Receptor in purified plasma membranes, not on intact cells; also called hIGF1R; insulin-like growth factor 1 receptor
T2 sequence (P08069 31-1367): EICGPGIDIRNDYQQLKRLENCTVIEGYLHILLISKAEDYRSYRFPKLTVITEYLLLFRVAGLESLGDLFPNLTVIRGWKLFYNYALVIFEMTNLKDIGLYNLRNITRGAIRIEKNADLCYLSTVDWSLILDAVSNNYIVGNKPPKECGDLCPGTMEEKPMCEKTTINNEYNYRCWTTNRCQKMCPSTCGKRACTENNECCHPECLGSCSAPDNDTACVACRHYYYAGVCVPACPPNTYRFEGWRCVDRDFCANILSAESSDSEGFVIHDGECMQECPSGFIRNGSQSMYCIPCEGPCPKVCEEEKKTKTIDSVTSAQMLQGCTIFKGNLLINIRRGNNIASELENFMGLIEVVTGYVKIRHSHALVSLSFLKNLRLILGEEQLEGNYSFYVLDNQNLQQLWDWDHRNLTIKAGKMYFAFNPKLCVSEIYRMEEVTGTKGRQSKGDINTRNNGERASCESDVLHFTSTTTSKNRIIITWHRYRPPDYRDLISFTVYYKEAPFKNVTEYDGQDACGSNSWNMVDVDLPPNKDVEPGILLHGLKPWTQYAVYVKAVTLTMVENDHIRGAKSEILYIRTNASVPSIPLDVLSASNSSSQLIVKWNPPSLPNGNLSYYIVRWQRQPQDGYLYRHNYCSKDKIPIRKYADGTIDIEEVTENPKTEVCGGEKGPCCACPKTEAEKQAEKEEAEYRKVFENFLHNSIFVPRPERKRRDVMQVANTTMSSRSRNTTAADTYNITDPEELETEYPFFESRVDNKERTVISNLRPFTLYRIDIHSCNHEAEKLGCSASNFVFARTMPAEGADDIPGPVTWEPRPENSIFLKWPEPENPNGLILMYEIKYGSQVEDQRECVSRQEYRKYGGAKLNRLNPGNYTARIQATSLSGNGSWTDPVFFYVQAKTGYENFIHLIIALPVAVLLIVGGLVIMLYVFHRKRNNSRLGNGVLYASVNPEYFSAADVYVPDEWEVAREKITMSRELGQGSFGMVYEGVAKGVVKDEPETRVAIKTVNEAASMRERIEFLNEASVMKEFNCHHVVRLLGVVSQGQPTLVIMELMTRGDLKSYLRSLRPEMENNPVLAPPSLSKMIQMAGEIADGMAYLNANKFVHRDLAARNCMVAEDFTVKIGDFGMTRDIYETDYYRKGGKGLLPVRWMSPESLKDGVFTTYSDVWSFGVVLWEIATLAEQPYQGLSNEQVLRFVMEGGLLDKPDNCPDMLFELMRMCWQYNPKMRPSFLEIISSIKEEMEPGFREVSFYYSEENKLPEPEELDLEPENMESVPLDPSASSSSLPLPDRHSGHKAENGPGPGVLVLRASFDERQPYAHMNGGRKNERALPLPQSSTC
Experimental: The relative binding affinity for either of the membrane-associated human IR-A, IR-B or IGF-1R is determined by competition binding in a SPA setup. IR assays are performed in duplicate in 96-well OptiPlates (Perkin-Elmer Life Sciences). […] Assays are terminated by centrifugation of the plate at 2000 rpm for 2 minutes and bound radioactivity quantified by counting on a TopCount NXT (Perkin-Elmer Life Sciences).
IGF-1R assays are conducted essentially as for the IR binding assays except that membrane-associated IGF-1R and 50 pM [¹²5-Tyr31]-human IGF-1 were employed.

Molecule: A22K(N(eps)tetradecanedioyl-gGlu-2xOEG), B3E, B28D, B29R, desB30 human insulin (ligand)
Lipogenesis 1% HSA (% rel to HI) [1]: 21.3 % rel to HI | relative binding affinity (% rel to HI) [2]: 93.9 % rel to HI | relative binding affinity (% rel to HI) [3]: 108 % rel to HI

Molecule: A22K(N(eps)tetradecanedioyl-4xgGlu), B3E, B27E, B28E, B29P, B30R human insulin (ligand)
Lipogenesis 1% HSA (% rel to HI) [1]: 23.7 % rel to HI | relative binding affinity (% rel to HI) [2]: 45.1 % rel to HI | relative binding affinity (% rel to HI) [3]: 70 % rel to HI

Molecule: A22K(N(eps)tetradecanedioyl-4xgGlu), B3E, B27E, B28E, B29R, desB30 human insulin (ligand)
Lipogenesis 1% HSA (% rel to HI) [1]: 27.3 % rel to HI | relative binding affinity (% rel to HI) [2]: 74.9 % rel to HI | relative binding affinity (% rel to HI) [3]: 157 % rel to HI

Molecule: A22K(N(eps)tetradecanedioyl-4xgGlu), B3E, B26E, B27E, B28R, desB29, desB30 human insulin (ligand)
Lipogenesis 1% HSA (% rel to HI) [1]: 29.6 % rel to HI | relative binding affinity (% rel to HI) [2]: 57.2 % rel to HI | relative binding affinity (% rel to HI) [3]: 93.3 % rel to HI

Molecule: A22K(N(eps)hexadecanedioyl-gGlu-2xOEG), B3E, B28D, B29R, desB30 human insulin (ligand)
Lipogenesis 1% HSA (% rel to HI) [1]: 2.6 % rel to HI | relative binding affinity (% rel to HI) [2]: 32.1 % rel to HI | relative binding affinity (% rel to HI) [3]: 40.7 % rel to HI

Molecule: A22K(N(eps)tetradecanedioyl-gGlu-2xOEG), B3E, B27E, B28E, B29R, desB30 human insulin (ligand)
Lipogenesis 1% HSA (% rel to HI) [1]: 23.9 % rel to HI | relative binding affinity (% rel to HI) [2]: 103 % rel to HI | relative binding affinity (% rel to HI) [3]: 159 % rel to HI

B1: A8R, A22K(N(eps)tetradecanedioyl-4xgGlu), B3E, B26E, B28E, B29R, desB30 human insulin (ligand)
chain 1: GIVEQCCRSICSLYQLENYCNK
chain 2: FVEQHLCGSHLVEALYLVCGERGFFETER
modifications: not fully specified; Lys A22 acylated on N(eps) with tetradecanedioyl-4xgGlu
notes: Two-chain acylated insulin analogue; also called Ex. No. 23
Lipogenesis 1% HSA (% rel to HI) [1]: 59 % rel to HI | relative binding affinity (% rel to HI) [2]: 78.5 % rel to HI | relative binding affinity (% rel to HI) [4]: 182 % rel to HI | relative binding affinity (% rel to HI) [5]: 229 % rel to HI | relative binding affinity (% rel to HI) [3]: 143 % rel to HI | relative binding affinity (% rel to HI) [6]: 5.7 % rel to HI

B2: A8R, A22K(N(eps)tetradecanedioyl-4xgGlu), B3E, B26E, B29R, desB30 human insulin (ligand)
chain 1: GIVEQCCRSICSLYQLENYCNK
chain 2: FVEQHLCGSHLVEALYLVCGERGFFETPR
modifications: not fully specified; Lys A22 acylated on N(eps) with tetradecanedioyl-4xgGlu
notes: Two-chain acylated insulin analogue; also called Ex. No. 15
Lipogenesis 1% HSA (% rel to HI) [1]: 70.9 % rel to HI | relative binding affinity (% rel to HI) [2]: 108 % rel to HI | relative binding affinity (% rel to HI) [4]: 237 % rel to HI | relative binding affinity (% rel to HI) [5]: 294 % rel to HI | relative binding affinity (% rel to HI) [3]: 174 % rel to HI | relative binding affinity (% rel to HI) [6]: 10.8 % rel to HI

Next, values leading:

Lipogenesis 1% HSA (% rel to HI) [1]: 27 % rel to HI | relative binding affinity (% rel to HI) [2]: 64.3 % rel to HI | relative binding affinity (% rel to HI) [3]: 77.6 % rel to HI
Molecule: A22K(N(eps)tetradecanedioyl-4xgGlu), B3E, B27P, B28E, B29R, desB30 human insulin (ligand)

Lipogenesis 1% HSA (% rel to HI) [1]: 18.2 % rel to HI | relative binding affinity (% rel to HI) [2]: 48.3 % rel to HI | relative binding affinity (% rel to HI) [3]: 82.4 % rel to HI
Molecule: A22K(N(eps)tetradecanedioyl-4xgGlu), B3E, B26E, B27E, B28E, B29R, desB30 human insulin (ligand)

Lipogenesis 1% HSA (% rel to HI) [1]: 29.9 % rel to HI | relative binding affinity (% rel to HI) [2]: 40.6 % rel to HI | relative binding affinity (% rel to HI) [3]: 81.7 % rel to HI
Molecule: A22K(N(eps)tetradecanedioyl-4xgGlu), B3E, B27E, B28R, desB29, desB30 human insulin (ligand)

Lipogenesis 1% HSA (% rel to HI) [1]: 31.2 % rel to HI | relative binding affinity (% rel to HI) [2]: 78.5 % rel to HI | relative binding affinity (% rel to HI) [3]: 133 % rel to HI
Molecule: A22K(N(eps)tetradecanedioyl-4xgGlu), B3Q, B26E, B28E, B29R, desB30 human insulin (ligand)

Lipogenesis 1% HSA (% rel to HI) [1]: 3.8 % rel to HI | relative binding affinity (% rel to HI) [2]: 20.9 % rel to HI | relative binding affinity (% rel to HI) [3]: 47.8 % rel to HI
Molecule: A22K(N(eps)hexadecanedioyl-4xgGlu), B3E, B28D, B29R, desB30 human insulin (ligand)

Lipogenesis 1% HSA (% rel to HI) [1]: 4.4 % rel to HI | relative binding affinity (% rel to HI) [2]: 29.1 % rel to HI | relative binding affinity (% rel to HI) [3]: 35.7 % rel to HI
Molecule: A22K(N(eps)hexadecanedioyl-4xgGlu), B3E, B27E, B28E, B29R, desB30 human insulin (ligand)

Lipogenesis 1% HSA (% rel to HI) [1]: 78.6 % rel to HI | relative binding affinity (% rel to HI) [2]: 88.1 % rel to HI | relative binding affinity (% rel to HI) [4]: 211 % rel to HI | relative binding affinity (% rel to HI) [5]: 274 % rel to HI | relative binding affinity (% rel to HI) [3]: 164 % rel to HI | relative binding affinity (% rel to HI) [6]: 24 % rel to HI
B3: A8R, A22K(N(eps)tetradecanedioyl-4xgGlu), B3E, B27E, B28E, B29R, desB30 human insulin (ligand)
chain 1: GIVEQCCRSICSLYQLENYCNK
chain 2: FVEQHLCGSHLVEALYLVCGERGFFYEER
modifications: not fully specified; Lys A22 acylated on N(eps) with tetradecanedioyl-4xgGlu
notes: Two-chain acylated insulin analogue; also called Ex. No. 24

Lipogenesis 1% HSA (% rel to HI) [1]: 3.7 % rel to HI | relative binding affinity (% rel to HI) [2]: 16.5 % rel to HI | relative binding affinity (% rel to HI) [4]: 5.4 % rel to HI | relative binding affinity (% rel to HI) [5]: 114 % rel to HI | relative binding affinity (% rel to HI) [3]: 23.2 % rel to HI | relative binding affinity (% rel to HI) [6]: 14.3 % rel to HI
B4: A14E, A22K(N(eps)hexadecanedioyl-4xgGlu), B3E, B27E, B28E, B29R, desB30 human insulin (ligand)
chain 1: GIVEQCCTSICSLEQLENYCNK
chain 2: FVEQHLCGSHLVEALYLVCGERGFFYEER
modifications: not fully specified; Lys A22 acylated on N(eps) with hexadecanedioyl-4xgGlu
notes: Two-chain acylated insulin analogue; also called Ex. No. 27

— patent publication US20180305431A1 (Novo Nordisk, published 2018)
